Measurements reported in patent publication CN113501872A (INST PATHOGEN BIOLOGY CAMS, dated 2021).

Target: SARS-CoV-2刺突蛋白RBD区重组蛋白 (SARS-CoV-2, UniProt P0DTC2 319-541)
Test: indirect ELISA, RBD protein coated, Fab supernatant

B1: 人源抗SARS-CoV-2病毒Fab抗体SK1 (Fab, V domains shown)
VH: EVQLVESGGGLVQPGRSLRLSCAASGFIFDDYAMHWVRQAPGKGLEWVSGISWNSGTIGYADSVKGRFIISRDNAKNSLYLQLNRLGVEDTALYYCVKDIYYRDRNLGFAFDIWGQGTMVTVSS
VL: DIQLTQSPSSLSASIGDTVTITCRASQSIDNYLHWYQKKPGIAPKLLISATSTLENGVPSRFSGSRSGTDFTLTISSLQIEDFATYYCQQGHSVPLTFGGGTKLEVR
notes: also called SK1 Fab
binding result: binds
